For 13 molecules, EC50 and Kd results are on record in patent publication US20240301043A1 (Q32 BIO, published 2024).

Read-outs that look alike come from different tables or passages of the source.

A word on the EC50: it is the midpoint of the concentration-response curve. Read a high EC50 as a need for much substance. A word on the Kd: it is a measure of binding affinity in units of concentration. Higher therefore signals weaker binding.

Test [1] deals with T1, human C3d (human, UniProt P01024 1002-1303).
T1 construct: domain: C3d; also called C3d antigen
T1 sequence (P01024 1002-1303 limits assumed): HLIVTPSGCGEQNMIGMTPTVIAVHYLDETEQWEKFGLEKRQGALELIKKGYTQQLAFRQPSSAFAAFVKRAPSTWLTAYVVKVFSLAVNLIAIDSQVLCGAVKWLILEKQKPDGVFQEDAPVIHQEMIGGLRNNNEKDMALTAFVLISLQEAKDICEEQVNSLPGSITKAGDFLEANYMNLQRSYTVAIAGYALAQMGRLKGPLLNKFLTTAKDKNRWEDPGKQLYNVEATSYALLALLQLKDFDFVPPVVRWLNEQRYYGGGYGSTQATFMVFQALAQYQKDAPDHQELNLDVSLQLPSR
The experiment in a line: ELISA, human C3d coated on plate. Background: In an ELISA, binding on a coated surface is turned into a signal by an enzyme label.

The target of test [2] is T1, human C3d. The experiment in a line: SPR (Biacore 3000), human C3d amine-coupled to CM5 chip, construct as analyte. On the technique in general: In SPR one partner is held on a chip, and binding of the other changes the refractive index at the surface.
Test [3] concerns the target T1, human C3d. The test can be described thus: ELISA, human C3d coated on plate. The source holds these as a separate data set.
The target in test [4] is T1, human C3d. The test can be described thus: ELISA, human C3d coated on plate. The source holds these as a separate data set.

B1: Exemplary anti-C3d construct 74 (antibody, V domains shown)
VH: QVQLVQSGAEVKKPGASVKVSCKASGYTFTNYYINWVRQAPGQGLEWIGVINPYNGGTSYNQKFKGRATLTVDTSTSTAYMELSSLRSEDTAVYFCSSPYWGQGTLVTVSS
VL: DVVMTQSPLSLPVTLGQPASISCKSSQSLLDSDGKTYLNWFQQRPGQSPRRLIYLVSKLDSGVPDRFSGSGSGTDFTLKISRVEAEDVGVYYCWQGTHFPRTFGGGTKVEIK
notes: Humanized 3d8b VH4 / VK3; also called Exemplary construct 74
Regarding B1, the response with human C3d [1] was half-maximal at 0.017 nM (EC50). Further, in the test with human C3d [2], binding was characterised by a dissociation constant (Kd) of 1.34 nM.

B2: Exemplary anti-C3d construct 93 (antibody, human IgG4 S228P, kappa, V domains shown)
VH: QVQLVQSGAEVKKPGASVKVSCKASGYTFTNYYINWVRQAPGQGLEWMGVINPYSGGTSYNQKFKGRVTMTVDTSTSTAYMELSSLRSEDTAVYFCSSPYWGQGTLVTVSS
VL: DVVMTQSPLSLPVTLGQPASISCKSSQSLLDSDGKTYLNWFQQRPGQSPRRLIYLVSKLDSGVPDRFSGSGSGTDFTLKISRVEAEDVGVYYCWQGTHFPRTFGGGTKVEIKR
notes: also called Exemplary construct 93
Consider B2, for which, in the test with human C3d [2], the Kd was determined as 10.2 nM. The midpoint of the response in the test with human C3d [3], the EC50, lay at 0.02 nM.

B3: Exemplary anti-C3d construct 87 (antibody, human IgG4 S228P, kappa)
heavy: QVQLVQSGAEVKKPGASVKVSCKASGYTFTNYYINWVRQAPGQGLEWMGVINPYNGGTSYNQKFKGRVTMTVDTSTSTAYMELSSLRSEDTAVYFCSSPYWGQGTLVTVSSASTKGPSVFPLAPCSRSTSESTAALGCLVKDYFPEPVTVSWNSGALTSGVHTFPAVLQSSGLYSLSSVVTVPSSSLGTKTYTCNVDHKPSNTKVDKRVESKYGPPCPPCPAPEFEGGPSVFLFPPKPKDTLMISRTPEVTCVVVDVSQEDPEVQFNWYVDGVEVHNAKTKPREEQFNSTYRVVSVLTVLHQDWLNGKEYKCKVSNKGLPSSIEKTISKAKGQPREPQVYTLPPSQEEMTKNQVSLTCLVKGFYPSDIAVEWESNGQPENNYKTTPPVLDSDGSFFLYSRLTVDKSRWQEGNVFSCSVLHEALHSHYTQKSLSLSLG
light: DVVMTQSPLSLPVTLGQPASISCKSSQSLLDSDGKTYLNWFQQRPGQSPRRLIYLVSKLDSGVPDRFSGSGSGTDFTLKISRVEAEDVGVYYCWQGTHFPRTFGGGTKVEIKRTVAAPSVFIFPPSDEQLKSGTASVVCLLNNFYPREAKVQWKVDNALQSGNSQESVTEQDSKDSTYSLSSTLTLSKADYEKHKVYACEVTHQGLSSPVTKSFNRGEC
notes: also called Exemplary construct 87
The molecule B3 showed a Kd in the test with human C3d [2] of 7.57 nM. In the test with human C3d [3], the EC50 worked out at 0.02 nM.

B4: Exemplary anti-C3d construct 75 (antibody, V domains shown)
VH: QVQLVQSGAEVKKPGASVKVSCKASGYTFTNYYINWVRQAPGQGLEWMGVINPYNGGTSYNQKFKGRVTMTVDTSTSTAYMELSSLRSEDTAVYFCSSPYWGQGTLVTVSS
VL: DVVMTQSPLSLPVTLGQPASISCKSSQSLLDSDGKTYLNWFQQRPGQSPRRLIYLVSKLDSGVPDRFSGSGSGTDFTLKISRVEAEDVGVYYCWQGTHFPRTFGGGTKVEIK
notes: Humanized 3d8b VH5 / VK3; also called Exemplary construct 75
In turn, B4 returned a half-maximal effective concentration (EC50) in the test with human C3d [1] of 0.029 nM. Further, in the test with human C3d [2], the Kd turned out to be 1.63 nM.

B5: Exemplary anti-C3d construct 76 (antibody, V domains shown)
VH: QVQLVQSGAEVKKPGASVKVSCKASGYTFTNYYINWVRQAPGQGLEWIGVINPYHGGTSYNQKFKGRATLTVDTSTSTAYMELSSLRSEDTAVYFCSSPYWGQGTLVTVSS
VL: DVVMTQSPLSLPVTLGQPASISCKSSQSLLDSDGKTYLNWFQQRPGQSPRRLIYLVSKLDSGVPDRFSGSGSGTDFTLKISRVEAEDVGVYYCWQGTHFPRTFGGGTKVEIK
notes: Humanized 3d8b VH4 N54H / VK3; also called Exemplary construct 76
For B5, the response with human C3d [1] was half-maximal at 0.018 nM (EC50).

B6: Exemplary anti-C3d construct 86 (antibody, human IgG4 S228P, kappa)
heavy: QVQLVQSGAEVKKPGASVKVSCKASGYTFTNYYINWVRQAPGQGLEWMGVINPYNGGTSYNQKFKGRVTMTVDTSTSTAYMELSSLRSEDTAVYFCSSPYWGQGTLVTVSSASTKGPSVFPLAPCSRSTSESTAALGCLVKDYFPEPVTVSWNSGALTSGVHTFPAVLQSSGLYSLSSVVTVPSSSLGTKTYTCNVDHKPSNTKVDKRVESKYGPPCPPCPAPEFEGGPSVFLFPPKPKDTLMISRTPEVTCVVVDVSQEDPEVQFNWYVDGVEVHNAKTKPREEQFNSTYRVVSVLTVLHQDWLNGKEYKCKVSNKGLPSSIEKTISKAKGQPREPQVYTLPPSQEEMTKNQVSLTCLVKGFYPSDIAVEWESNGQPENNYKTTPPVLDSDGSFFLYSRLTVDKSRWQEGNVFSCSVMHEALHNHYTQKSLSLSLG
light: DVVMTQSPLSLPVTLGQPASISCKSSQSLLDSDGKTYLNWFQQRPGQSPRRLIYLVSKLDSGVPDRFSGSGSGTDFTLKISRVEAEDVGVYYCWQGTHFPRTFGGGTKVEIKRTVAAPSVFIFPPSDEQLKSGTASVVCLLNNFYPREAKVQWKVDNALQSGNSQESVTEQDSKDSTYSLSSTLTLSKADYEKHKVYACEVTHQGLSSPVTKSFNRGEC
notes: HC1 (VH5) humanized IgG4 S228P/L235E; LC1 (Vk3) humanized kappa; also called Exemplary construct 86
Regarding B6, the concentration for a half-maximal effect (EC50) in the test with human C3d [1] and with human C3d [3] was 0.03 nM each time. The molecule further showed a Kd with human C3d [2] of 14.7 nM.

B7: Exemplary anti-C3d construct 77 (antibody, V domains shown)
VH: QVQLVQSGAEVKKPGASVKVSCKASGYTFTNYYINWVRQAPGQGLEWMGVINPYHGGTSYNQKFKGRVTMTVDTSTSTAYMELSSLRSEDTAVYFCSSPYWGQGTLVTVSS
VL: DVVMTQSPLSLPVTLGQPASISCKSSQSLLDSDGKTYLNWFQQRPGQSPRRLIYLVSKLDSGVPDRFSGSGSGTDFTLKISRVEAEDVGVYYCWQGTHFPRTFGGGTKVEIK
notes: Humanized 3d8b VH5 N54H / VK3; also called Exemplary construct 77
Regarding B7, the concentration giving a half-maximal response (EC50) in the test with human C3d [1] came to 0.011 nM.

B8: Exemplary anti-C3d construct 78 (antibody, V domains shown)
VH: QVQLVQSGAEVKKPGASVKVSCKASGYTFTNYYINWVRQAPGQGLEWIGVINPYSGGTSYNQKFKGRATLTVDTSTSTAYMELSSLRSEDTAVYFCSSPYWGQGTLVTVSS
VL: DVVMTQSPLSLPVTLGQPASISCKSSQSLLDSDGKTYLNWFQQRPGQSPRRLIYLVSKLDSGVPDRFSGSGSGTDFTLKISRVEAEDVGVYYCWQGTHFPRTFGGGTKVEIK
notes: Humanized 3d8b VH4 N54S / VK3; also called Exemplary construct 78
The molecule B8 displayed an EC50 with human C3d [1] of 0.018 nM.

B9: Exemplary anti-C3d construct 79 (antibody, V domains shown)
VH: QVQLVQSGAEVKKPGASVKVSCKASGYTFTNYYINWVRQAPGQGLEWMGVINPYSGGTSYNQKFKGRVTMTVDTSTSTAYMELSSLRSEDTAVYFCSSPYWGQGTLVTVSS
VL: DVVMTQSPLSLPVTLGQPASISCKSSQSLLDSDGKTYLNWFQQRPGQSPRRLIYLVSKLDSGVPDRFSGSGSGTDFTLKISRVEAEDVGVYYCWQGTHFPRTFGGGTKVEIK
notes: Humanized 3d8b VH5 N54S / VK3; also called Exemplary construct 79
B9 had an EC50 with human C3d [1] of 0.02 nM.

B10: Exemplary Fusion Construct 99 (other)
heavy: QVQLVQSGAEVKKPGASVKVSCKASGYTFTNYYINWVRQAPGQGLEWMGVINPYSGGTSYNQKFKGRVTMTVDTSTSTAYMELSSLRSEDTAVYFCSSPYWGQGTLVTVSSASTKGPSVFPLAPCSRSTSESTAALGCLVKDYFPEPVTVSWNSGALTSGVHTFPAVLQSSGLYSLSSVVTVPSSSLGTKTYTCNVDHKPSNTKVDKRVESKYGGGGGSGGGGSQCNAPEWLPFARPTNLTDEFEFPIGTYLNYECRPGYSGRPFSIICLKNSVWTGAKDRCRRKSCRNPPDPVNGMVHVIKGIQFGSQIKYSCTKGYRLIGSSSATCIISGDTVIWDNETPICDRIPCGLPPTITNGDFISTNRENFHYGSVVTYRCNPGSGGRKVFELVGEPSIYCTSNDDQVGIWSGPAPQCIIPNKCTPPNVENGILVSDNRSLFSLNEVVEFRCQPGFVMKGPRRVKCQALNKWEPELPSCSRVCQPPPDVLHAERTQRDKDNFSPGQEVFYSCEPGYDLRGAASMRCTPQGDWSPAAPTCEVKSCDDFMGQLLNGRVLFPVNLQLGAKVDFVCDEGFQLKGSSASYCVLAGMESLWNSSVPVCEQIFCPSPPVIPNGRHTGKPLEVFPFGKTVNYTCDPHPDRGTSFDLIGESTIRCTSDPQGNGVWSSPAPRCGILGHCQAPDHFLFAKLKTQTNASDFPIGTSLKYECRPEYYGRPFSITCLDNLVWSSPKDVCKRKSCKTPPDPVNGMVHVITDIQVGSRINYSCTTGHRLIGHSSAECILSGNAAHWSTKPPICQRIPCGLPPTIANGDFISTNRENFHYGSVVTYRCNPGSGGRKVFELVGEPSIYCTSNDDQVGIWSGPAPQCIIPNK
light: DVVMTQSPLSLPVTLGQPASISCKSSQSLLDSDGKTYLNWFQQRPGQSPRRLIYLVSKLDSGVPDRFSGSGSGTDFTLKISRVEAEDVGVYYCWQGTHFPRTFGGGTKVEIKRTVAAPSVFIFPPSDEQLKSGTASVVCLLNNFYPREAKVQWKVDNALQSGNSQESVTEQDSKDSTYSLSSTLTLSKADYEKHKVYACEVTHQGLSSPVTKSFNRGEC
notes: Order chain, linker, modulator follows claim 321
Take B10: in the test with human C3d [3], the EC50 was found to be 1.54 nM.

B11: Exemplary anti-C3d construct 55 (antibody, mouse IgG1, kappa, V domains shown)
VH: EVQLQQSGPVLVKPGASVKMSCKASGYTFTAYYMNWVRQSHGKSLEWIGVINPYNGGTSYNQKFKGKATLTVDKSSSTAYMELNSLTSEDSAVYYCSSPYWGQGTSVTVSS
VL: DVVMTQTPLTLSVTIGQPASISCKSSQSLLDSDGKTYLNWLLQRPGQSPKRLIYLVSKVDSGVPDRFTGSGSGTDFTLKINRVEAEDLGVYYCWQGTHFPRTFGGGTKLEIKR
notes: also called Exemplary construct 55
Consider B11, for which it took 0.24 nM to reach a half-maximal effect with human C3d [4] (EC50).

B12: Exemplary anti-C3d construct 34 (antibody, mouse IgG1, kappa, V domains shown)
VH: EVQLQQSGPVLVKPGASVKMSCKASGYTFTAYYMNWVRQSHGKSLEWIGVINPYNGGTSYNQKFKGKATLTVDKSSSTAYMELNSLTSEDSAVYYCSSPYWGQGTSVTVSS
VL: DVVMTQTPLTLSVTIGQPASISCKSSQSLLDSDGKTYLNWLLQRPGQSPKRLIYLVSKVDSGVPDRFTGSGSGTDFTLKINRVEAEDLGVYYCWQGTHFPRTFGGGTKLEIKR
notes: muHC2 murine IgG1 heavy chain and muLC2 murine kappa light chain; also called Exemplary construct 34
Regarding B12, in the test with human C3d [2], binding was characterised by a dissociation constant (Kd) of 0.888 nM. The concentration giving a half-maximal response (EC50) in the test with human C3d [4] is 0.32 nM.

B13: Exemplary anti-C3d construct 56 (Fab) (Fab, V domains shown)
VH: EVQLQQSGPVLVKPGASVKMSCKASGYTFTAYYMNWVRQSHGKSLEWIGVINPYNGGTSYNQKFKGKATLTVDKSSSTAYMELNSLTSEDSAVYYCSSPYWGQGTSVTVSS
VL: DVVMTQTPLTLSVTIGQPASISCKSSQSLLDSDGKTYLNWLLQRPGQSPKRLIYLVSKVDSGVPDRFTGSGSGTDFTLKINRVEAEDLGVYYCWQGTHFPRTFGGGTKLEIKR
notes: also called Exemplary construct 56
Regarding B13, the dissociation constant Kd with human C3d [2] is 0.91 nM. Also, the EC50 with human C3d [4] was 0.55 nM.
